Changes are numbered by the printed parent chain.

The values that follow come from patent publication US20230011916A1, “METHODS OF CANCER TREATMENT USING ANTI-OX40 ANTIBODIES IN COMBINATION WITH PI3 KINASE DELTA INHIBITORS” (BEIGENE, LTD., priority 2019, published 2023).

In one test the test system is EMT-6 cells. Briefly: EMT-6 syngeneic breast cancer model in BALB/c mice. The format is in vivo, mouse. How it is done: EMT-6 cells are of murine breast cancer origin. Female BALB/c mice were implanted intramammary with 5×10^4 EMT-6 cells per 100 μL PBS mice in the second right papilla. After inoculation, mice were randomized into 4 groups with 25 animals in each group according to inoculation order.
The mice were treated with vehicle (0.5% MC), OX86 (a murine specific anti-OX40 antibody), Compound 1 (PI3Kdelta inhibitor), and the combination of OX86 and Compound 1, respectively. OX86 was given at 0.4 mg/kg once per week (QW) by intraperitoneal (i.p.) injection, and Compound 1 was administered at 30 mg/kg twice per day (BID) by oral gavage (p.o.). Tumor volume was determined twice weekly and tumor growth inhibition was determined using the formula described in Example 14 above.

In a further test the test system is A20 cells. Briefly: A20 syngeneic B cell lymphoma model in BALB/c mice. The format is in vivo, mouse. The conditions noted are these: Compound 1 10 mg/kg p.o. The method, then: A20 cells are of B cell lymphoma origin. Female BALB/c mice were subcutaneously implanted with 1×10^5 A20 cells in 150 μL PBS mice in the right flank. After inoculation, mice were randomized into 4 groups with 25 animals in each group according to inoculation order. The mice were treated with vehicle (0.5% MC), OX86 (a murine specific anti-OX40 antibody), Compound 1, and the combination of OX86 and Compound 1. OX86 was given at 0.4 mg/kg once a week by intraperitoneal injection, and Compound 1 was administered at 10 mg/kg twice a day by oral gavage. Tumor volume was determined twice weekly and the TGI calculated as described above.

The target of test [1] is T1, interaction between OX40 and OX40 ligand (Mus musculus, UniProt P47741).
T1 sequence (P47741 20-272): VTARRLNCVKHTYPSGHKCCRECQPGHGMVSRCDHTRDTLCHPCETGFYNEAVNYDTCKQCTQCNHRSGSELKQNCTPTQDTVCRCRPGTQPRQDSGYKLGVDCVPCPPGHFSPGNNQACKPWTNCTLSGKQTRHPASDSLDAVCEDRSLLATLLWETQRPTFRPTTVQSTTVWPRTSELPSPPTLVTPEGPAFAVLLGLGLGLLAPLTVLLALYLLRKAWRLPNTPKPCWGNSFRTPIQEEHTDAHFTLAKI
T1 sequence (P43488 1-198 partner): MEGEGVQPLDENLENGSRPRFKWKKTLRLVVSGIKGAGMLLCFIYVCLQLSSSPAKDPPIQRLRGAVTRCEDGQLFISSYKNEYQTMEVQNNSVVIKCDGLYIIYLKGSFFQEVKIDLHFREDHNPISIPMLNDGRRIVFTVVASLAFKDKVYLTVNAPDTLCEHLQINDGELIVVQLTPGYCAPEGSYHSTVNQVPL
Conditions: reported in the scientific literature; cited from earlier work.

Test [2] has as its target T2, recombinant OX40 protein with a His tag (Homo sapiens, UniProt P43489).
T2 construct: His tag; purchased Sino Biological 10481-H08H
T2 sequence (P43489 29-277): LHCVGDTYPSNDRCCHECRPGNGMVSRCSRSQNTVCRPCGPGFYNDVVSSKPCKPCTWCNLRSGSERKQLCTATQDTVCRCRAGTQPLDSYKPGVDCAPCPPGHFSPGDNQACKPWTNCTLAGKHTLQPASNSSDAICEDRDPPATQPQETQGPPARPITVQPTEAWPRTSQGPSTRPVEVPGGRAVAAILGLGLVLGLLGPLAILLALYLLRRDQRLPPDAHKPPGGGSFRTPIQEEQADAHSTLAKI
Briefly: Binding kinetics and affinity of anti-OX40 antibodies by SPR (BIAcore T-200). From the text:
The anti-OX40 antibodies were characterized for their binding kinetics and affinity by SPR assays using BIAcore™ T-200 (GE Life Sciences). Briefly, anti-human IgG antibody was immobilized on an activated CM5 biosensorchip (Cat: BR100530, GE Life Sciences). An antibody with human IgG Fc region was flowed over the chip surface and captured by anti-human IgG antibody. Then a serial dilution of recombinant OX40 protein with a His tag (Cat: 10481-H08H, Sino Biological) was flowed over the chip surface and changes in surface plasmon resonance signals were analyzed to calculate the association rates (ka) and dissociation rates (kd) by using the one-to-one Langmuir binding model (BIA Evaluation Software, GE Life Sciences). The equilibrium dissociation constant (KD) was calculated as the ratio kd/ka.
(In SPR one partner is held on a chip, and binding of the other changes the refractive index at the surface.)

The mark [3] stands for this setting: OX86 0.4 mg/kg QW i.p., Compound 1 30 mg/kg BID p.o.

B1: OX86: rat anti-mouse OX40 antibody (WO2016/057667) engineered with mouse IgG2a constant regions; VH SEQ ID NO: 32, VL SEQ ID NO: 33 (antibody, V domains shown)
VH: QVQLKESGPGLVQPSQTLSLTCTVSGFSLTGYNLHWVRQPPGKGLEWMGRMRYDGDTYYNSVLKSRLSISRDTSKNQVFLKMNSLQTDDTAIYYCTRDGRGDSFDYWGQGVMVTVSS
VL: DIVMTQGALPNPVPSGESASITCRSSQSLVYKDGQTYLNWFLQRPGQSPQLLTYWMSTRASGVSDRFSGSGSGTYFTLKISRVRAEDAGVYYCQQVREYPFTFGSGTKLEIK
modifications: mouse IgG2a constant regions
On to B1, for which, in the test on EMT-6 cells (setting [3]), the “Mean Tumor Volume on Day 22 (mean ± SEM)” value stood at 210.5 ± 43.9 mm^3 and the “Tumor Free Animal” value is 40%. Also, in the test with EMT-6 cells (OX86 0.4 mg/kg QW×4 i.p., Compound 1 30 mg/kg BID×22 p.o.), the “TGI on Day 22” value is 79%. In the test on A20 cells (OX86 0.4 mg/kg QW i.p.), the “Mean Tumor Volume on Day 26 (mean ± SEM)” value is reported as 53.4 ± 28.7 mm^3 and the “Tumor Free Animals at Day 47” value came out at 80%. In addition, in the test on A20 cells (OX86 0.4 mg/kg QW×4 i.p.), the “TGI on Day 26” value amounted to 93%. The “Blocking of the interaction between OX40 and OX40 ligand” value in test [1] is “does not block the interaction between OX40 and OX40 ligand”.

B2: ch445: Mu445 variable domains fused to human IgG1wt/kappa constant regions (antibody, V domains shown)
VH: EVQLQQSGPELVKPGASVKMSCKASGYKFTSYIIHWVKQKPGQGLEWIGYINPYNDGTRYNEKFKGKATLTSDKSSSTAYMEYSSLTSEDSAVYYCARGYYGSSYAMDYWGQGTSVTVSS
VL: DIQMTQTTSSLSASLGDRVTISCSASQGISNYLNWYQQKPDGTIKLLIYDTSTLYSGVPSRFSGSGSGTDYFLTISNLEPEDIATYYCQQYSKLPYTFGGGTKLEKK
With B2, the KA in test [2] (Mean) worked out at 1.41e+08 M⁻¹. Further, in test [2] (Test 1), the KA is 1.22e+08 M⁻¹, the ka came out at 174000 M⁻¹ s⁻¹ and the kd stood at 0.00143 s⁻¹. Besides, in test [2] (Test 2), the KA was 1.59e+08 M⁻¹, the ka worked out at 265000 M⁻¹ s⁻¹ and the kd turned out to be 0.00167 s⁻¹.

B3: 445-1: humanized anti-OX40 antibody, human IgG1 wt, VH SEQ ID NO: 14, VL SEQ ID NO: 16 (antibody, V domains shown)
VH: QVQLVQSGAEVKKPGSSVKVSCKASGYKFTSYIIHWVRQAPGQGLEWMGYINPYNDGTRYNQKFQGRVTLTSDKSTSTAYMELSSLRSEDTAVYYCARGYYGSSYAMDYWGQGTTVTVSS
VL: DIQMTQSPSSLSASVGDRVTITCSASQGISNYLNWYQQKPGKAIKLLIYDTSTLYSGVPSRFSGSGSGTDYTLTISSLQPEDFATYYCQQYSKLPYTFGGGTKVEIK
modifications: human IgG1 constant regions; 445-1 VH pro; 445-1 VK pro
As for B3, the results for the KA in test [2] (Mean), in test [2] (Test 1) and in test [2] (Test 2) were 5.9e+07 M⁻¹, 5.6e+07 M⁻¹ and 6.1e+07 M⁻¹, respectively. For the same molecule, the values for the ka in test [2] (Test 1) and in test [2] (Test 2) were 156000 M⁻¹ s⁻¹ and 237000 M⁻¹ s⁻¹, respectively. In addition, the kd was 0.00277 s⁻¹ in test [2] (Test 1) and 0.00389 s⁻¹ in test [2] (Test 2).

B4: 445-2: humanized anti-OX40 antibody, VH SEQ ID NO: 20, VL SEQ ID NO: 22 (antibody, V domains shown)
VH: B3 VH with D56E, N61A, S72A
VL: B3 VL with T51A, Y71F
modifications: 445-2 VH pro; 445-2 VK pro
Take B4: the KA in test [2] (Mean) amounted to 7.5e+07 M⁻¹; in test [2] (Test 1), 7.1e+07 M⁻¹; in test [2] (Test 2), 7.8e+07 M⁻¹. For the same molecule, the ka in test [2] (Test 1) came to 276000 M⁻¹ s⁻¹; in test [2] (Test 2), 206000 M⁻¹ s⁻¹. Further, the figures for the kd in test [2] (Test 1) and in test [2] (Test 2) were 0.0039 s⁻¹ and 0.00264 s⁻¹, respectively.
